Measured values published in US20170182124A1, “FGF21 Derivatives and Uses Thereof” (Novo Nordisk A/S, priority 2014, published 2017).
Read-outs that look alike come from different tables or passages of the source. Marks after values point to notes of the source that are not given here.

Tests used:
3T3-L1 adipocytes = 3T3-L1 adipocytes (Mus musculus, UniProt P16092+Q99N32); experiment: Glucose uptake in 3T3-L1 adipocytes; format: cell-based; settings: stimulated 20 hours, 3H-deoxy-glucose
Procedure, shortened: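 Differentiated 3T3-L1 adipocytes (days 7-9 after troglitazone/IBMX/dexamethasone/insulin induction; express FGFR1c and βKL) stimulated with FGF21 analogues (0-300 nM) for 20 h. 3H-deoxy-glucose uptake over 1 h measured by scintillation counting after Triton lysis; EC50 and Emax derived.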

[1] = Body weight reduction in lean mice; format: in vivo, lean C57BL mice; settings: change from baseline day 1 to 7
Procedure: In order to determine the in vivo potency of the FGF21 derivatives the effect on body weight was studied in lean C57BL mice after subcutaneous (s.c.) administration. It has previously been shown that the weight loss induced by FGF21 in lean mice is predictive of the effect in obese mice and therefore lean mice are considered a good screening model.
The compounds were administered s.c. 1 mg/kg either once (QD) or twice (BID) daily in 10 mM phosphate, 2% (w/vol) glycerol, 500ppm (=0.05%) polysorbate 80, pH=8.15, (2 ml/kg) for 7 days (n=7-8). The respective vehicle treated groups (control) were treated with 10 mM phosphate, 2% (w/vol) glycerol, 500ppm (=0.05%) polysorbate 80, pH=8.15, (2 ml/kg) s.c. twice daily for 7 days (n=6-8). Body weight was measured before dosing and again after 7 days treatment.

[2] = pig, in vivo, iv
Procedure: (§1) The purpose of this study was to determine the protraction in vivo of the FGF21 derivatives after i.v. administration to mini pigs and mice, i.e. the prolongation of their time in the body and thereby their time of action. This was done in a pharmacokinetic (PK) study, where the terminal half-life of the analogue in question was determined. By terminal half-life is meant the time it takes to halve a certain plasma concentration in the terminal elimination phase.
(§2) Female Gottingen mini pigs were obtained from Ellegaard Gottingen Minipigs (Dalmose, Denmark) approximately 7-14 months of age and weighing approximately 16-35 kg were used in the studies. The mini pigs were housed either individually (pigs with permanent catheters) or in a group and fed restrictedly once or twice daily with SDS mini pig diet (Special Diets Services, Essex, UK).
(§3) After at least 2 weeks of acclimatisation two permanent central venous catheters were implanted in vena cava caudalis or cranialis in each animal. The animals were allowed 1 week recovery after the surgery, and were then used for repeated pharmacokinetic studies with a suitable wash-out period between successive dosing.
(§4) Blood samples (for example 0.8 ml) were collected in EDTA (8 mM) coated tubes and then centrifuged at 4° C. and 1942G for 10 minutes. Blood samples were collected to adequately cover the full plasma concentration-time profile of the API. In example blood samples were collected at t=predose, 0.0833, 0.25, 0.5, 0.75, 1, 1.5, 2, 3, 4, 6, 8, 10, 24, 30, 48, 72, 96, 120, 144, 168, 192, 216, 240, 264 hours after dose.
(§5) Plasma was pipetted into Micronic tubes on dry ice, and kept at −20° C. until analysed for plasma concentration of the respective FGF-1 analogue using ELISA. Individual plasma concentration-time profiles were analyzed by a non-compartmental pharmacokinetic method in Phoenix v. 6.3 (Pharsight Inc., Mountain View, Calif., USA), or other relevant software for PK analysis, and the resulting terminal half-lives (harmonic mean) determined.

[3] = mouse, in vivo, iv, 20 mg/kg
Procedure: (§6) This was done in a pharmacokinetic (PK) study, where the terminal half-life of the analogue in question was determined. By terminal half-life is meant the time it takes to halve a certain plasma concentration in the terminal elimination phase.
(§7) The pharmacokinetic profile of FGF21 analogues was tested in normal lean C57b1 mice, n =2-3 (approximately 30 grams). FGF21 compounds were dosed as a single intravenous dose of 20 mg/kg (approximately 5 ml/kg).
(§8) The plasma levels of the FGF21 compounds were determined using Fibroblast Growth Factor-21 Human ELISA (available from BioVendor, catalogue no. RD191108200R). The PC based software, WnNonLin version 6.3 from Pharsight Corportion, Cary N.C., was used for the pharmacokinetic calculation.

FGF receptor/BKL complex = experiment: FGF receptor potency in an Erk phosphorylation assay in HEK293 overexpressing human BKL; format: cell-based; settings: HEK293/BKL cells, pERK after 12 minutes
Procedure, shortened: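 pERK after 12 min analogue exposure at 37° C. was quantified by AlphaScreen SureFire in lysates of beta-klotho-transfected HEK293 cells. Assay medium was DMEM with 0.02% Tween20, run both without albumin and with 0.1% final HSA to probe albumin binding. Cells were starved 2 h in basal medium first. Absolute EC50 reported.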

[4] = Pharmacokinetic study in mini pigs (i.v.); settings: terminal half-life, female Gottingen mini pigs
Procedure: as §1, §2, §3, §4, §5

[5] = Pharmacokinetic study in mice (i.v.); settings: terminal half-life, single intravenous dose of 20 mg/kg, lean C57bl mice
Procedure: as §6, §7, §8

[6] = presence of 0.1% HSA, read-out: EC50 (0.1% HSA)

FGF receptor/BKL complex, sequence (Q86Z14 whole entry, one chain of several): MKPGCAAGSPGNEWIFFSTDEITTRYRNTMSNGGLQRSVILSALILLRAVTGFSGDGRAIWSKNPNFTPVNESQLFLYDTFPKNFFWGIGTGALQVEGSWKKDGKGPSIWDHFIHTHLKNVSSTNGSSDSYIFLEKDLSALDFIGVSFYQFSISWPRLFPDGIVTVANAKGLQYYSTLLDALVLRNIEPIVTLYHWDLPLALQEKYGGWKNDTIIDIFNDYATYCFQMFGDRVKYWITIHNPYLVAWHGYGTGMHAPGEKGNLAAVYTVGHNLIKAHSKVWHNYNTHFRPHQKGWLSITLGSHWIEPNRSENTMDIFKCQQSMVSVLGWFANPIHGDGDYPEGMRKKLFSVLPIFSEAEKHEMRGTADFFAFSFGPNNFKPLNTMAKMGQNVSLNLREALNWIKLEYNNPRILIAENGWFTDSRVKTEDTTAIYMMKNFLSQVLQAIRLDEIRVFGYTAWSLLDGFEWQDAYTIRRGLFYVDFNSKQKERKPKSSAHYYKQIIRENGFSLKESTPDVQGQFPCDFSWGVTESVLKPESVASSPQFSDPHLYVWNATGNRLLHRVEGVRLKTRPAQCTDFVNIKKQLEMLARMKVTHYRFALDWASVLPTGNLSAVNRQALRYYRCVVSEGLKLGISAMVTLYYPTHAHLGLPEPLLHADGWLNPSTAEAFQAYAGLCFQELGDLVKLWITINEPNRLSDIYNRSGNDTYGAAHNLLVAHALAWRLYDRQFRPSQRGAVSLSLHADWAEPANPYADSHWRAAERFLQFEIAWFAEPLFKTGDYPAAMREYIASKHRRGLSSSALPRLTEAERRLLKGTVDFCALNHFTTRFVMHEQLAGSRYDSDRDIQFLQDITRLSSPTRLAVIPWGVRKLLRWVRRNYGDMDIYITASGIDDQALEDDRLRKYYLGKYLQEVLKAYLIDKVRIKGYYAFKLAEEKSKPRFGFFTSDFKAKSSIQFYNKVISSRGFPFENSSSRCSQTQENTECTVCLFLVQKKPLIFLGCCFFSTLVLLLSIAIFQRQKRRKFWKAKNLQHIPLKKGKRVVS
3T3-L1 adipocytes, sequence (Q99N32 whole entry): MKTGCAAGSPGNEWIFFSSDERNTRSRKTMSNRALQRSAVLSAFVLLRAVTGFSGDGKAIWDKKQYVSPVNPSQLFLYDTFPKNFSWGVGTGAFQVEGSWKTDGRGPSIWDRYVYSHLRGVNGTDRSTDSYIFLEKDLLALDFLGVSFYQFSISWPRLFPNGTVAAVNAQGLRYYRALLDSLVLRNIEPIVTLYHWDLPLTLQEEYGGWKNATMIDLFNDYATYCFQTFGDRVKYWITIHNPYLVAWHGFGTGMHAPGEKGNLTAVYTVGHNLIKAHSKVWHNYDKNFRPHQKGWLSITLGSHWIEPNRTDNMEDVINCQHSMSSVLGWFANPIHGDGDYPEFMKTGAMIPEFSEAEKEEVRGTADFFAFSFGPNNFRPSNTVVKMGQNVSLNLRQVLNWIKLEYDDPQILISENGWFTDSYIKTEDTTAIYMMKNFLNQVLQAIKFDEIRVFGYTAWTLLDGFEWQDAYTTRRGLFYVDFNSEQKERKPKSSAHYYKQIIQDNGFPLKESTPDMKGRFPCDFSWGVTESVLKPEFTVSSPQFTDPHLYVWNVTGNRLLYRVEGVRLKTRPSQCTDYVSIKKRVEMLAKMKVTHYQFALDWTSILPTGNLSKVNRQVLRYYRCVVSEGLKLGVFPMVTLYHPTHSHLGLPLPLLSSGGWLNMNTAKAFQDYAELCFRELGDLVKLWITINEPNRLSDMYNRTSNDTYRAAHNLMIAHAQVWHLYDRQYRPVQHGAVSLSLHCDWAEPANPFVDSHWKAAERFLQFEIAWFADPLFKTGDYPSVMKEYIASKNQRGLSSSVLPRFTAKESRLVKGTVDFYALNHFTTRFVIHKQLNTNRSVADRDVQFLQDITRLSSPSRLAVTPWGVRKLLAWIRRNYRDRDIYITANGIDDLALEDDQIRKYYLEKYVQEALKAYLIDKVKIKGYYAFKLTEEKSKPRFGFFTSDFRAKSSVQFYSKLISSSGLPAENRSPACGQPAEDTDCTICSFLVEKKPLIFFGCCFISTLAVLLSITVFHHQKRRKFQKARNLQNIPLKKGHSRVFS
3T3-L1 adipocytes, sequence (P16092 22-822): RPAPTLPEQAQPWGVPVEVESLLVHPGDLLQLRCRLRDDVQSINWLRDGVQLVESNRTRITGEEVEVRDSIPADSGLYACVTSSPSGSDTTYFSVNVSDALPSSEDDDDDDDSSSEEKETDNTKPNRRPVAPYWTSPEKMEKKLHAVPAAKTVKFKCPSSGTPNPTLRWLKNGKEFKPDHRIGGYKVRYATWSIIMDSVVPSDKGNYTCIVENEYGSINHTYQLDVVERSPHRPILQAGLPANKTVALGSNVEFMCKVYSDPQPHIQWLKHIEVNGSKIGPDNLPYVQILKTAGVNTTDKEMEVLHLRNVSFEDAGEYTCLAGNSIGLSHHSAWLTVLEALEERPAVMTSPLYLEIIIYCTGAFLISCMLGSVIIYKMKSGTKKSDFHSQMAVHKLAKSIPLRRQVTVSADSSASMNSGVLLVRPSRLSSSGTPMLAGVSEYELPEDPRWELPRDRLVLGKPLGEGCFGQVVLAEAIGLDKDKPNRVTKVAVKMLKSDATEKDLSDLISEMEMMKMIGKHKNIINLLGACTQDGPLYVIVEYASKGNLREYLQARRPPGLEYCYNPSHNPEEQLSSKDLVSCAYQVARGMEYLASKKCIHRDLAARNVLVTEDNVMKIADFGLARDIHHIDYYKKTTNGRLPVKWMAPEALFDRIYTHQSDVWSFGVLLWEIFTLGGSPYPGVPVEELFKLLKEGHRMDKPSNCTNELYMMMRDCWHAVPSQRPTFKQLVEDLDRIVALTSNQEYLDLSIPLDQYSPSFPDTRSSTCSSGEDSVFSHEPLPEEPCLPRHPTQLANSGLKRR

B1: MetFGF21 (protein)
chain: MHPIPDSSPLLQFGGQVRQRYLYTDDAQQTEAHLEIREDGTVGGAADQSPESLLQLKALKPGVIQILGVKTSRFLCQRPDGALYGSLHFDPEACSFRELLLEDGYNVYQSEAHGLPLHLPGNKSPHRDPAPRGPARFLPLPGLPPALPEPPGILAPQPPDVGSSDPLSMVGPSQGRSPSYAS
Glucose uptake Emax (3T3-L1 adipocytes): 100%
Mean Δ body weight (%) ([1]; s.c. 1 mg/kg BID for 7 days): −1.88** %
Half-life mini pigs [2]: 2 h
Half-life mice [3]: 1 h

B2: S{Beta-181}-[2-[2-[[2-[2-[2-[[2-[2-[2-[[(4S)-4-carboxy-4-(13-carboxytridecanoyl-amino)butanoyl]amino]ethoxy]ethoxy]acetyl]amino]ethoxy]ethoxy]acetyl]amino]-ethylamino]-2-oxoethyl]-Ala[Gln121,Leu168,Cy … (protein)
chain: HPIPDSSPLLQFGGQVRQRYLYTDDAQQTEAHLEIREDGTVGGAADQSPESLLQLKALKPGVIQILGVKTSRFLCQRPDGALYGSLHFDPEACSFRELLLEDGYNVYQSEAHGLPLHLPGQKSPHRDPAPRGPARFLPLPGLPPALPEPPGILAPQPPDVGSSDPLSLVGPSQGRSPSYAC
EC50 (FGF receptor/BKL complex; absence of HSA, read-out: EC50): 58 nM
EC50 (FGF receptor/BKL complex; [6]): 41 nM
Half-life mini pigs [4]: 2 h
EC50 (3T3-L1 adipocytes): 7.2 nM
Glucose uptake Emax (3T3-L1 adipocytes): 55%
Half-life mice [5]: 3 h
Mean Δ body weight (%) ([1]; s.c. 1 mg/kg BID for 7 days): −0.94%

B3: S{Beta-181}-[2-[2-[[2-[2-[2-[[2-[2-[2-[[(4S)-4-carboxy-4-(15-carboxypentadecanoyl-amino)butanoyl]amino]ethoxy]ethoxy]acetyl]amino]ethoxy]ethoxy]acetyl]amino]-ethylamino]-2-oxoethyl]-Ala[Gln121,Leu168, … (protein)
chain: HPIPDSSPLLQFGGQVRQRYLYTDDAQQTEAHLEIREDGTVGGAADQSPESLLQLKALKPGVIQILGVKTSRFLCQRPDGALYGSLHFDPEACSFRELLLEDGYNVYQSEAHGLPLHLPGQKSPHRDPAPRGPARFLPLPGLPPALPEPPGILAPQPPDVGSSDPLSLVGPSQGRSPSYAC
EC50 (FGF receptor/BKL complex; absence of HSA, read-out: EC50): 55 nM
EC50 (FGF receptor/BKL complex; [6]): 72 nM
Half-life mini pigs [4]: 25 h
EC50 (3T3-L1 adipocytes): 31 nM
Glucose uptake Emax (3T3-L1 adipocytes): 61%
Half-life mice [5]: 4 h
Mean Δ body weight (%) ([1]; s.c. 1 mg/kg QD for 7 days): 0.18%
